The term Kd denotes the constant that tells how readily two partners part at equilibrium. Low readings indicate tighter binding, high ones weaker binding.

The target in experiment [1] is T1, CaVrg4; C. albicans Vrg4; GDP-mannose transporter Vrg4 (Candida albicans, UniProt Q5A477).
T1 construct: first 33 residues excluded; expressed in S. cerevisiae BJ5460 from pDDGFP-Leu2D; His-tagged GFP fusion cut by TEV; DDM/DM purified, reconstituted into liposomes; ~37 kDa
T1 sequence (Q5A477 34-371): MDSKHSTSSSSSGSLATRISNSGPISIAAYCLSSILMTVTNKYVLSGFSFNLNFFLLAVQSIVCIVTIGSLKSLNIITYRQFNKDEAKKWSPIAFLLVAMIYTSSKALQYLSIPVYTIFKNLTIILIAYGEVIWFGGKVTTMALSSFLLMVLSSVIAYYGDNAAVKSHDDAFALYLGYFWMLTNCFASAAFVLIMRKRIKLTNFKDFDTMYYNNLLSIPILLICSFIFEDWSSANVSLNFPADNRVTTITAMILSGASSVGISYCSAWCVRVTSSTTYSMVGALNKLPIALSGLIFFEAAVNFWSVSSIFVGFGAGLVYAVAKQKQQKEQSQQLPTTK
Description: cryo-EM structure, […] Å. It is filed as binding. Conditions: complex with nanobody NB4, cytoplasmic-facing state; endogenous co-purified ligand; density suboptimal for precise ligand modelling.

The target in experiment [2] is T2, Candida albicans Vrg4, Avi-tagged (C terminus), biotinylated (Candida albicans (UniProt Q5A477, …, UniProt Q5A477)).
T2 construct: also called biotinylated CaVrg4; purified CaVrg4; source: S. cerevisiae BJ5460, purified as the untagged version, biotinylated using BirA ligase; not shown: Avi tag, C-terminal, kept
In words: ELISA; dilution series of each nanobody captured by its Myc tag on MaxiSorp plates with protein A and anti-c-Myc antibody; 50 nM biotinylated CaVrg4 added for 40 minutes; streptavidin-peroxidase polymer, TMB, absorbance at 650 nm; KD from the 'one site - total binding' equation. The conditions noted are these: both partners purified. On the technique in general: In an ELISA, binding on a coated surface is turned into a signal by an enzyme label.

On to `Nc1nc2c(ncn2[C@@H]2O[C@H](COP(=O)(O)OP(=O)(O)O[C@H]3O[C@H](CO)[C@@H](O)[C@H](O)[C@@H]3O)[C@@H](O)[C@H]2O)c(=O)[nH]1` [GDP-mannose], for which the “cryo-EM structure, 3.4 Å” value in experiment [1] is “in the maps obtained for the NB4-bound structure, we observed density consistent with the endogenous ligand”.

B1: Nanobody NB3 (VHH)
VHH: QVQLVESGGGLVQPGGSLRLSCAASGSISEINVMGWYRQAPGKQRELVARITTGGSTNYADSVKGRFTISRDNAKNTVYLQMNSLKPEDTAVYMCNAHRRVVMEWGPLGYDYWGQGTQVTVSS
notes: source: subcloned into the pSBinit vector and purified; not shown: Myc, C-terminal, kept; His, C-terminal, kept
On to B1, for which, in experiment [2], the Kd is about 3 nM.

B2: Nanobody NB4 (VHH)
VHH: QVQLVESGGGLVQAGGSLRLSCAASGRTFRSYTLGWFRQAPGKEREFVAAIKWSTDTTYYADSVKGRFTISGDNAKNTVYLQMNSLKPEDTAVYFCAARSLSTVIAGPEIPWPYNSWGQGTQVTVSS
notes: as for B1
In the case of B2, the Kd in experiment [2] was about 10 nM.

The values are drawn from paper PMC12340910, “Structural basis for transport and inhibition of nucleotide sugar transport in pathogenic fungi” (Research Square, 2025).
